Source: IntAct's records for PubMed 21697476

B1: Replication and transcription activator (Epstein-Barr virus (strain B95-8) (HHV-4)), P03209 (parent)
chain: MRPKKDGLEDFLRLTPEIKKQLGSLVSDYCNVLNKEFTAGSVEITLRSYKICKAFINEAKAHGREWGGLMATLNICNFWAILRNNRVRRRAENAGNDACSIACPIVMRYVLDHLIVVTDRFFIQAPSNRVMIPATIGTAMYKLLKHSRVRAYTYSKVLGVDRAAIMASGKQVVEHLNRMEKEGLLSSKFKAFCKWVFTYPVLEEMFQTMVSSKTGHLTDDVKDVRALIKTLPRASYSSHAGQRSYVSGVLPACLLSTKSKAVETPILVSGADRMDEELMGNDGGASHTEARYSESGQFHAFTDELESLPSPTMPLKPGAQSADCGDSSSSSSDSGNSDTEQSEREEARAEAPRLRAPKSRRTSRPNRGQTPCPSNAAEPEQPWIAAVHQESDERPIFPHPSKPTFLPPVKRKKGLRDSREGMFLPKPEAGSAISDVFEGREVCQPKRIRPFHPPGSPWANRPLPASLAPTPTGPVHEPVGSLTPAPVPQPLDPAPAVTPEASHLLEDPDEETSQAVKALREMADTVIPQKEEAAICGQMDLSHPPPRGHLDELTTTLESMTEDLNLDSPLTPELNEILDTFLNDECLLHAMHISTGLSIFDTSLF

Variants of: B1
Details: with po2f1_human POU2F1, P14859
po2f1_human POU2F1, P14859, sequence (P14859 whole entry): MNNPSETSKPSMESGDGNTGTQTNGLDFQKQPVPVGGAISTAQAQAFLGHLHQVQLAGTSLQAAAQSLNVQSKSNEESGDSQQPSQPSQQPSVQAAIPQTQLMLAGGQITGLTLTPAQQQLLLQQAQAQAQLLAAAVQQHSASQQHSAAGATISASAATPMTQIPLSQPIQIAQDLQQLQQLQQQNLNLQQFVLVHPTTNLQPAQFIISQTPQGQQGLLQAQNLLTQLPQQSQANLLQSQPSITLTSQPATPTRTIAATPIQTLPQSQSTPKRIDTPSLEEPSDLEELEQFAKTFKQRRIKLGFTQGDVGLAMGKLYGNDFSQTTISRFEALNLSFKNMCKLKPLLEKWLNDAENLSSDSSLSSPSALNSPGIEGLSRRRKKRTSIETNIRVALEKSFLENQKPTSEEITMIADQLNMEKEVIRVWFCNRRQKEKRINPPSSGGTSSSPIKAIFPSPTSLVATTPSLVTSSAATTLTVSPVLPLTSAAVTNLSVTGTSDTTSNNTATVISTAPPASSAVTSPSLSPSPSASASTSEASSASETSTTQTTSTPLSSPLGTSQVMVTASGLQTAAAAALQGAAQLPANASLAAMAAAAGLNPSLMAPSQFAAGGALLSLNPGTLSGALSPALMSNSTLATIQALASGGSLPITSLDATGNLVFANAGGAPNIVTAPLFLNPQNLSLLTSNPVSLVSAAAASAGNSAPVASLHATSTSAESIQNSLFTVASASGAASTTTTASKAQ

Variant	effect of a mutation on the interaction
M140A	decreasing interaction
